From PMC3384344 (Nucleic Acids Research, 2012)
Substitutions are numbered along the chain they refer to. Numbers in names are those of the source. Where two headings read alike, the source gives them in different places.

What was measured:
[1] = target: DNA polymerase III α subunit, wild-type full-length (E. coli) (UniProt P10443); assay: other fluorescence titration
[2] = target: T1, DNA polymerase III α subunit truncation α1–280 (E. coli, UniProt P10443 1-280); assay: cell-based or functional assay
T1 sequence (P10443 1-280): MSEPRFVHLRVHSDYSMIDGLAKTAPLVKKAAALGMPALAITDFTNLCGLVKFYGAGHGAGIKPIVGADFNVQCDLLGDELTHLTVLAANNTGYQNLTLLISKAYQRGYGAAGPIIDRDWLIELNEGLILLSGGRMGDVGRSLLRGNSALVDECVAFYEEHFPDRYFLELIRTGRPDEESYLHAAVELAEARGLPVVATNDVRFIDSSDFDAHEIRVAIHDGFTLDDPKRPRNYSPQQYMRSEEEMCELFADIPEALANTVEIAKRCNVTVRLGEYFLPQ

[3] = target: DNA polymerase III α subunit truncation α917–1160 (E. coli, UniProt P10443 917-1160); assay: other fluorescence titration
DNA polymerase III α subunit truncation α917–1160, sequence (P10443 917-1160): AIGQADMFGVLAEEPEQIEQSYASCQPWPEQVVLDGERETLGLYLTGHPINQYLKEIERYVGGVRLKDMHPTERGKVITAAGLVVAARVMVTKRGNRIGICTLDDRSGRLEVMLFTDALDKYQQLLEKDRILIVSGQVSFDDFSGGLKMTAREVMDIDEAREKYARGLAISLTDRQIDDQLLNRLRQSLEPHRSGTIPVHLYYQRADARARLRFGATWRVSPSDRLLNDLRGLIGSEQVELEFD

[4] = target: T1, DNA polymerase III α subunit truncation …; assay: other fluorescence titration
[5] = target: T2, DNA polymerase III α subunit, wild-type full-length (E. coli, UniProt P10443 1-1160); assay: other fluorescence titration
T2 sequence (P10443 whole entry, the tested form may be a part): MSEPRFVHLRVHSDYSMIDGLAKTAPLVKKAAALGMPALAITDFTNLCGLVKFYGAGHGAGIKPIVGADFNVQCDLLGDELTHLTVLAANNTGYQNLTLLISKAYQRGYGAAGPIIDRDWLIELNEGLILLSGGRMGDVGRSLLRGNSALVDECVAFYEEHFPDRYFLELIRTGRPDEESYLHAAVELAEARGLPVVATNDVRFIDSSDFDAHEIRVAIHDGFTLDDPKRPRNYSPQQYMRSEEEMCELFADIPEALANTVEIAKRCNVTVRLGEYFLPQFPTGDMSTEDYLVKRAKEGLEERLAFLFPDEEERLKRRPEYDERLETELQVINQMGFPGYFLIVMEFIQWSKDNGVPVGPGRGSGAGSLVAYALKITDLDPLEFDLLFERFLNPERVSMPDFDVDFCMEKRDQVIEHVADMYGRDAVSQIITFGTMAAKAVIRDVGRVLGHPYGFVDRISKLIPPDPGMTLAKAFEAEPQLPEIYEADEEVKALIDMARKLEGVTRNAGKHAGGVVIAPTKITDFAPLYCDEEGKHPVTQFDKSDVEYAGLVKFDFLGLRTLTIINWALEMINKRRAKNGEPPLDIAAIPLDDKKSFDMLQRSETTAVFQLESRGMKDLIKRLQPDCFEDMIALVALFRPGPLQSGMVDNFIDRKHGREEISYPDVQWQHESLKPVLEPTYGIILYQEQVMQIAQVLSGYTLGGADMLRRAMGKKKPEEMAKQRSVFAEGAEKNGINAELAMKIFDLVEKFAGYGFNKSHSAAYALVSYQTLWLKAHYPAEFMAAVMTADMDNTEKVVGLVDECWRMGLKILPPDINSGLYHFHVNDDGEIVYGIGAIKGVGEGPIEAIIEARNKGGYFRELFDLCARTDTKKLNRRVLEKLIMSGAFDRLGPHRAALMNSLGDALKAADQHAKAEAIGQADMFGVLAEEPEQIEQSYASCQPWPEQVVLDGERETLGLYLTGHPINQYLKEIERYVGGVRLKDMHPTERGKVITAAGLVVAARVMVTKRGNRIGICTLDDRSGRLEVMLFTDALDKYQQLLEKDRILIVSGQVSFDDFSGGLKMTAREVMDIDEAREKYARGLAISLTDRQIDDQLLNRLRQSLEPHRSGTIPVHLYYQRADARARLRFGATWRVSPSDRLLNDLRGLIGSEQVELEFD

[6] = target: DNA polymerase III α subunit truncation α1–956 (E. coli, UniProt P10443 1-956); assay: other fluorescence titration
DNA polymerase III α subunit truncation α1–956, sequence (P10443 1-956): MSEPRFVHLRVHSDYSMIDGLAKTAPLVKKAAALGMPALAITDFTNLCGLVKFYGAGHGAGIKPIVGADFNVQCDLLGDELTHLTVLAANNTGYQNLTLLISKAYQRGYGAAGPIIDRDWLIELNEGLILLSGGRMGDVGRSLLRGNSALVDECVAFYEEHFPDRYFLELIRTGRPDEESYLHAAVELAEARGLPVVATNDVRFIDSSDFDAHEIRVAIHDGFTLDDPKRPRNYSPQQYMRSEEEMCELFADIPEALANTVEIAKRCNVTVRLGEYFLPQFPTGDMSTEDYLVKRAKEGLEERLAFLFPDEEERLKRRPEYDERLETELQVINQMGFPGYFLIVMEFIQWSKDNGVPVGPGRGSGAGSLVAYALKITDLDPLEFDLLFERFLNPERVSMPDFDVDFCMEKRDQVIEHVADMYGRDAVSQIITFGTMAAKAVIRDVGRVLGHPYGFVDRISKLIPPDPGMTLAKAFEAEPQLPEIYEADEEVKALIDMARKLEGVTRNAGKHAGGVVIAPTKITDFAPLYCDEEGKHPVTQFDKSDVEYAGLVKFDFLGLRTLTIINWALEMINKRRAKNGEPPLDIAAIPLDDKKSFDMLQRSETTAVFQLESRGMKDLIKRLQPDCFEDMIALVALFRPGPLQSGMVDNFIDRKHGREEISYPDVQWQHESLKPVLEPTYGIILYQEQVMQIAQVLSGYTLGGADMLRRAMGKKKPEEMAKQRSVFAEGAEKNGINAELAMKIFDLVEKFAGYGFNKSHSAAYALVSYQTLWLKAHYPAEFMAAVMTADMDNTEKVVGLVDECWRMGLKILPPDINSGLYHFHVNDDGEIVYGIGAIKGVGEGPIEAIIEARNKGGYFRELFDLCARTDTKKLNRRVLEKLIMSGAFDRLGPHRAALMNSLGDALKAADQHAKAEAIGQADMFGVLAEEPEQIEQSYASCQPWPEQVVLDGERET

[7] = target: DNA polymerase III α subunit truncation α1–975 (E. coli, UniProt P10443 1-975); assay: other fluorescence titration
DNA polymerase III α subunit truncation α1–975, sequence (P10443 1-975): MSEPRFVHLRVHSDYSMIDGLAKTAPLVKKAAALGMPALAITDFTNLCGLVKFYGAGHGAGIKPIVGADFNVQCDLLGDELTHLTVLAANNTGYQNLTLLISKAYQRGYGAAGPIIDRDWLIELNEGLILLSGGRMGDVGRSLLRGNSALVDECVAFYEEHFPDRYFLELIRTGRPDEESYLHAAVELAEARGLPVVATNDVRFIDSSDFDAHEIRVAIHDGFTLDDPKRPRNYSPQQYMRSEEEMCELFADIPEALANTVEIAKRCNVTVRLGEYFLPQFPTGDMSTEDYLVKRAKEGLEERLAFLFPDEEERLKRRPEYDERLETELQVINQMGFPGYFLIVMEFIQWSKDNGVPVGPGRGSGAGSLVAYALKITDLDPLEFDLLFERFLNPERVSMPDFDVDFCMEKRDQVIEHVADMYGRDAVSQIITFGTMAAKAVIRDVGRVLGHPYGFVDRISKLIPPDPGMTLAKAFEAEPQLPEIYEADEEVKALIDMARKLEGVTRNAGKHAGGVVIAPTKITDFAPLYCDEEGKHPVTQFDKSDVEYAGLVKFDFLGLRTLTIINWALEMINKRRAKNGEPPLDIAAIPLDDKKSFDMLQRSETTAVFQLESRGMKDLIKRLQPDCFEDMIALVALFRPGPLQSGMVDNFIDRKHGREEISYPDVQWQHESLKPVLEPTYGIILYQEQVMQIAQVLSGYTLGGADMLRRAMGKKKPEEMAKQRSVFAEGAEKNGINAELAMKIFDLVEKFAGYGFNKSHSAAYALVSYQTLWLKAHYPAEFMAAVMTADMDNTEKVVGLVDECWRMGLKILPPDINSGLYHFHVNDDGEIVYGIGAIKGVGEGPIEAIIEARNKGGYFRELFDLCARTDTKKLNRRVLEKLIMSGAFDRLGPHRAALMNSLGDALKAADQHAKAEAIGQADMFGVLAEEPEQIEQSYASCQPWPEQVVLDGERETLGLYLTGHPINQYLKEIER

[8] = target: T2, DNA polymerase III α subunit, wild-type …; assay: other fluorescence titration; remark: listed apart in the source
[9] = target: the molecule itself; assay: cross-linking

DNA polymerase III α subunit, wild-type full-length (E. coli), sequence (P10443 whole entry, the tested form may be a part): as the sequence (P10443 whole entry, the tested form may be a part) above

1:1 mixture of UmuD-S60A and UmuD′-S60A (from UniProt P0AG11) (complex)
Kd [1]: 4.6 µM

B1: UmuD, wild-type full-length (homodimer UmuD2) (natural protein)
chain: MLFIKPADLREIVTFPLFSDLVQCGFPSPAADYVEQRIDLNQLLIQHPSATYFVKASGDSMIDGGISDGDLLIVDSAITASHGDIVIAAVDGEFTVKKLQLRPTVQLIPMNSAYSPITISSEDTLDVFGVVIHVVKAMR
RecA/ssDNA-facilitated UmuD cleavage at 30°C with 0–40 µM α1–280 [2]: ~4 fold more α1–280 than wild-type α | Kd [3]: 13.9 ± 5.1 µM | Kd [4]: 7.3 ± 1.4 µM | Kd [5]: 1.1 ± 0.6 µM | Kd [6]: 14.7 ± 1.9 µM | Kd [7]: 3.1 ± 1 µM | Kd [8]: 21.7 ± 11.7 µM

B2: UmuD3A (UmuD containing the triple mutation T14A, L17A and F18A) (natural protein)
chain: B1 chain with T14A, L17A, F18A
Kd [3]: 3.4 ± 1 µM | Kd [4]: 9.3 ± 3.2 µM | Kd [5]: 8.7 ± 1.5 µM

B3: UmuD-S60A, non-cleavable full-length UmuD variant (natural protein)
chain: B1 chain with S60A
binding result [9]: binds | Kd [3]: 0.7 ± 0.3 µM | Kd [4]: 10.3 ± 4.3 µM | Kd [5]: 10.6 ± 2.9 µM

B4: UmuD′, cleaved form of UmuD (homodimer UmuD′2) (natural protein)
chain: GFPSPAADYVEQRIDLNQLLIQHPSATYFVKASGDSMIDGGISDGDLLIVDSAITASHGDIVIAAVDGEFTVKKLQLRPTVQLIPMNSAYSPITISSEDTLDVFGVVIHVVKAMR
Kd [3]: 3.8 ± 0.9 µM | Kd [4]: 8.6 ± 1 µM | Kd [5]: 10.9 ± 1.6 µM
